# In the supplement of paper PMC9112550, “Optimization of the antimicrobial peptide Bac7 by deep mutational scanning” (BMC Biology, 2022):
# System: Escherichia coli TOP10
# Test: shrunken log2 fold change of peptide-encoding DNA abundance (4.5 h post-induction vs induction); higher = less antimicrobial activity (less host growth inhibition)
# Conditions: time post-induction: 4.5 h; library: site-saturation at positions 5, 18, 19, 20
# 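Further: peptides expressed intracellularly from a pBAD plasmid library in pooled LB shake-flask culture, induced with 0.3% L-arabinose, DNA abundance read by NGS, three biological replicates, DESeq2 with apeglm shrinkage.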
row,Sequence,shrunken log2 fold change
1,RRIRKRPPRLPRPRPRPSLRPRP,-0.278
2,RRIRKRPPRLPRPRPRPSMAPRP,0.0554
3,RRIRKRPPRLPRPRPRPSPGPRP,0.26
4,RRIRKRPPRLPRPRPRPSQEPRP,-0.0223
5,RRIRKRPPRLPRPRPRPSQVPRP,0.31
6,RRIRKRPPRLPRPRPRPSRNPRP,-0.0207
7,RRIRKRPPRLPRPRPRPSRPPRP,0.529
8,RRIRKRPPRLPRPRPRPSSWPRP,0.147
9,RRIRKRPPRLPRPRPRPSTEPRP,0.136
10,RRIRKRPPRLPRPRPRPSTIPRP,-0.0803
11,RRIRKRPPRLPRPRPRPSWCPRP,-0.152
12,RRIRKRPPRLPRPRPRPSYHPRP,2.31
13,RRIRKRPPRLPRPRPRPSYMPRP,-0.0995
14,RRIRKRPPRLPRPRPRPTCHPRP,0.169
15,RRIRKRPPRLPRPRPRPTCWPRP,0.499
16,RRIRKRPPRLPRPRPRPTFNPRP,-0.344
17,RRIRKRPPRLPRPRPRPTGHPRP,0.348
18,RRIRKRPPRLPRPRPRPTGMPRP,0.128
19,RRIRKRPPRLPRPRPRPTGNPRP,0.563
20,RRIRKRPPRLPRPRPRPTITPRP,-0.1
21,RRIRKRPPRLPRPRPRPTKNPRP,0.392
22,RRIRKRPPRLPRPRPRPTKRPRP,0.697

row,Sequence,shrunken log2 fold change
1,RRIRKRPPRLPRPRPRPTLSPRP,0.0214
2,RRIRKRPPRLPRPRPRPTMAPRP,0.638
3,RRIRKRPPRLPRPRPRPTMGPRP,-0.0139
4,RRIRKRPPRLPRPRPRPTMKPRP,-0.0364
5,RRIRKRPPRLPRPRPRPTMRPRP,1.02
6,RRIRKRPPRLPRPRPRPTNLPRP,-0.0903
7,RRIRKRPPRLPRPRPRPTPHPRP,0.653
8,RRIRKRPPRLPRPRPRPTQMPRP,0.8
9,RRIRKRPPRLPRPRPRPTQYPRP,0.0924
10,RRIRKRPPRLPRPRPRPTREPRP,0.48
11,RRIRKRPPRLPRPRPRPTRHPRP,0.482
12,RRIRKRPPRLPRPRPRPTTQPRP,0.196
13,RRIRKRPPRLPRPRPRPTVNPRP,0.402
14,RRIRKRPPRLPRPRPRPTVRPRP,0.899
15,RRIRKRPPRLPRPRPRPTWTPRP,0.0915
16,RRIRKRPPRLPRPRPRPTYFPRP,-0.817
17,RRIRKRPPRLPRPRPRPVAQPRP,0.541
18,RRIRKRPPRLPRPRPRPVCEPRP,0.552
19,RRIRKRPPRLPRPRPRPVDMPRP,-0.122
20,RRIRKRPPRLPRPRPRPVEPPRP,0.505
21,RRIRKRPPRLPRPRPRPVFKPRP,0.288
22,RRIRKRPPRLPRPRPRPVGDPRP,0.247

row,Sequence,shrunken log2 fold change
1,RRIRKRPPRLPRPRPRPVGPPRP,0.441
2,RRIRKRPPRLPRPRPRPVKHPRP,-0.0571
3,RRIRKRPPRLPRPRPRPVKLPRP,-0.0408
4,RRIRKRPPRLPRPRPRPVLIPRP,-0.141
5,RRIRKRPPRLPRPRPRPVLPPRP,0.338
6,RRIRKRPPRLPRPRPRPVLQPRP,-0.0875
7,RRIRKRPPRLPRPRPRPVNRPRP,0.0352
8,RRIRKRPPRLPRPRPRPVPKPRP,0.289
9,RRIRKRPPRLPRPRPRPVPRPRP,0.72
10,RRIRKRPPRLPRPRPRPVQRPRP,0.0869
11,RRIRKRPPRLPRPRPRPVRCPRP,0.746
12,RRIRKRPPRLPRPRPRPVRLPRP,0.203
13,RRIRKRPPRLPRPRPRPVSDPRP,0.156
14,RRIRKRPPRLPRPRPRPVTCPRP,-0.0146
15,RRIRKRPPRLPRPRPRPVVQPRP,0.242
16,RRIRKRPPRLPRPRPRPVWDPRP,2.04
17,RRIRKRPPRLPRPRPRPVWFPRP,0.142
18,RRIRKRPPRLPRPRPRPVWIPRP,0.0328
19,RRIRKRPPRLPRPRPRPVYQPRP,0.131
20,RRIRKRPPRLPRPRPRPVYTPRP,-0.356
21,RRIRKRPPRLPRPRPRPWAKPRP,0.0651
22,RRIRKRPPRLPRPRPRPWARPRP,0.704

row,Sequence,shrunken log2 fold change
1,RRIRKRPPRLPRPRPRPWAYPRP,-0.228
2,RRIRKRPPRLPRPRPRPWECPRP,0.033
3,RRIRKRPPRLPRPRPRPWFNPRP,-0.209
4,RRIRKRPPRLPRPRPRPWGNPRP,-0.0638
5,RRIRKRPPRLPRPRPRPWIKPRP,-0.00314
6,RRIRKRPPRLPRPRPRPWILPRP,-0.14
7,RRIRKRPPRLPRPRPRPWKCPRP,-0.0018
8,RRIRKRPPRLPRPRPRPWKFPRP,0.0297
9,RRIRKRPPRLPRPRPRPWPSPRP,0.0175
10,RRIRKRPPRLPRPRPRPWQLPRP,-0.00277
11,RRIRKRPPRLPRPRPRPWTQPRP,0.0628
12,RRIRKRPPRLPRPRPRPYAMPRP,0.202
13,RRIRKRPPRLPRPRPRPYAYPRP,-0.12
14,RRIRKRPPRLPRPRPRPYCLPRP,-0.17
15,RRIRKRPPRLPRPRPRPYCQPRP,-0.773
16,RRIRKRPPRLPRPRPRPYCWPRP,-0.315
17,RRIRKRPPRLPRPRPRPYDWPRP,-0.0468
18,RRIRKRPPRLPRPRPRPYEIPRP,-0.0117
19,RRIRKRPPRLPRPRPRPYGIPRP,-0.329
20,RRIRKRPPRLPRPRPRPYHKPRP,0.0411
21,RRIRKRPPRLPRPRPRPYIHPRP,-0.227
22,RRIRKRPPRLPRPRPRPYKVPRP,-0.558

row,Sequence,shrunken log2 fold change
1,RRIRKRPPRLPRPRPRPYMEPRP,-0.0534
2,RRIRKRPPRLPRPRPRPYMMPRP,-0.103
3,RRIRKRPPRLPRPRPRPYMPPRP,-0.315
4,RRIRKRPPRLPRPRPRPYMTPRP,-0.0252
5,RRIRKRPPRLPRPRPRPYNNPRP,-0.286
6,RRIRKRPPRLPRPRPRPYPKPRP,0.109
7,RRIRKRPPRLPRPRPRPYQEPRP,0.0431
8,RRIRKRPPRLPRPRPRPYRIPRP,-0.0846
9,RRIRKRPPRLPRPRPRPYRWPRP,-0.164
10,RRIRKRPPRLPRPRPRPYRYPRP,-0.14
11,RRIRKRPPRLPRPRPRPYTQPRP,-0.0811
12,RRIRKRPPRLPRPRPRPYVEPRP,-1.51
13,RRIRLRPPRLPRPRPRPAAAPRP,1.04
14,RRIRLRPPRLPRPRPRPAAIPRP,-0.0299
15,RRIRLRPPRLPRPRPRPAAMPRP,0.158
16,RRIRLRPPRLPRPRPRPACTPRP,-0.128
17,RRIRLRPPRLPRPRPRPACVPRP,0.131
18,RRIRLRPPRLPRPRPRPADDPRP,-0.088
19,RRIRLRPPRLPRPRPRPADMPRP,-0.445
20,RRIRLRPPRLPRPRPRPAEYPRP,-0.0275
21,RRIRLRPPRLPRPRPRPAFFPRP,0.406
